These results are taken from patent publication US20100221261.

For series [1], the target named is GST-XIAP linker BIR 2 [GST: P08515].
Series [2] deals with GST-linker BIR 2 BIR3Ring.
Sequence of GST-linker BIR 2 BIR3Ring (chain, as listed by the source): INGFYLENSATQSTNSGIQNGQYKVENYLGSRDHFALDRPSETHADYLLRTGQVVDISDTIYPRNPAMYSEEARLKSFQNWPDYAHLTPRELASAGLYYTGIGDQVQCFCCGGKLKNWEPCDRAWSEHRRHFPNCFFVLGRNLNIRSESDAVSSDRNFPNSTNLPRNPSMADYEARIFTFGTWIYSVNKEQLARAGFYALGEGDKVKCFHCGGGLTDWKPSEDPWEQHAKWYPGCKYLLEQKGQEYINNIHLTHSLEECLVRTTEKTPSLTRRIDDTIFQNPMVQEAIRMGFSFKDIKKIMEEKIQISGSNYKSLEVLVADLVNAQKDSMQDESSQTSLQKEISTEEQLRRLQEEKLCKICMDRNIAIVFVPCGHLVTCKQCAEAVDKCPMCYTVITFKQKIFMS

B1: Caspase-3 (protein)
chain: SGISLDNSYKMDYPEMGLCIIINNKNFHKSTGMTSRSGTDVDAANLRETFRNLKYEVRNKNDLTREEIVELMRDVSKEDHSKRSSFVCVLLSHGEEGIIFGTNGPVDLKKITNFFRGDRCRSLTGKPKLFIIQACRGTELDCGIETDSGVDDDMACHKIPVEADFLYAYSTAPGYYSWRNSKDGSWFIQSLCAMLKQYADKLEFMHILTRVNRKVATEFESFSFDATFHAKKQIPCIVSMLTKELYFYH
Consider B1, for which the “Caspase 3 activity (hydrolysis of DEVD-AMC, released AMC fluorescence)” value in series [1] is reported as “caspase-3 was inhibited by GST fusion proteins of XIAP linker-Bir2, XIAP Linker Bir2-Bir3-RING or full-length XIAP”; in series [2] it was “caspase-3 was inhibited by GST fusion proteins of XIAP linker-Bir2, XIAP Linker Bir2-Bir3-RING or full-length XIAP”.
